Article PMC5449601

Assays:
[1] = target: HNRNPG N-RRM (GST fusion) (human, UniProt P38159 1-83); assay: EMSA
[2] = target: HNRNPG C-RBD (GST fusion) (human, UniProt P38159 334-391); assay: EMSA
[3] = target: HNRNPG C-RBD mutant, all three RGG to FGG (GST fusion) (human, UniProt P38159 334-391, R373F;R377F;R384F); assay: UV cross-linking
HNRNPG C-RBD mutant, all three RGG to FGG (GST fusion), sequence (P38159 334-391 R373F/R377F/R384F): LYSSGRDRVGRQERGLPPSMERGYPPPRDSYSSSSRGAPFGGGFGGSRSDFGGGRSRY

HNRNPG C-RBD (GST fusion), sequence (P38159 334-391): as the sequence (P38159 334-391 R373F/R377F/R384F) above, with F40R, F44R, F51R counted along it
HNRNPG N-RRM (GST fusion), sequence (P38159 1-83): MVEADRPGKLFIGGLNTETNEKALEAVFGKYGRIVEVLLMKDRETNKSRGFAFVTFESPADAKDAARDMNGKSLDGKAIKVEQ

Row | Binder | binding result [1] | binding result [2] | binding result [3]
1 | AAUGUGAAGGACUUUCGUAACGGAAGUAAUUCAA (structured_RNA, 3' biotin) [MALAT1 hairpin 2,515-A] | no binding | binds | no binding
2 | AAUGUGAAGGACUUUCGUAACGGAAGUAAUUCAA (structured_RNA, m6A at position 11; 3' biotin) [MALAT1 hairpin 2,515-m6A] | no binding | binds | no binding
